Where a chain is given by its changes, count along the chain named.
T1: hIL2Rb-his (human, UniProt P14784 27-240)
T1 sequence: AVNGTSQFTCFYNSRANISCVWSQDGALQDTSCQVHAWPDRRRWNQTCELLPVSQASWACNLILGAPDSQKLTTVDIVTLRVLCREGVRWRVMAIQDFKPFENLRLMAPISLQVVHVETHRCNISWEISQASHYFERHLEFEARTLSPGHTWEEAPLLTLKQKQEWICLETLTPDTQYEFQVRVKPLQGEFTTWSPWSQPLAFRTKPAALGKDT

T2: hIL2Rg-his (Sino Biological, Catalog# 10555) (human, UniProt P31785 23-262)
T2 construct: Bought; also called extracellular domain of hIL2Rg
T2 sequence: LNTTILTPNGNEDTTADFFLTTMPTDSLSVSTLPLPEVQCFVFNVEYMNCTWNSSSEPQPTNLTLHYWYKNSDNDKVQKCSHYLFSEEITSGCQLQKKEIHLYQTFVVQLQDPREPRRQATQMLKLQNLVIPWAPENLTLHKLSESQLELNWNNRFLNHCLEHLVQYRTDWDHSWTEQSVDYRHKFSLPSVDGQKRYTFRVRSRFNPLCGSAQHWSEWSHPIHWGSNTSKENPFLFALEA

T3: mIL2Rg ECD antigen (murine, UniProt P34902 23-263)
T3 construct: The immunogen was the ECD fused to human IgG1 hinge and Fc; also called ECD of IL2Rg (mouse)
T3 sequence: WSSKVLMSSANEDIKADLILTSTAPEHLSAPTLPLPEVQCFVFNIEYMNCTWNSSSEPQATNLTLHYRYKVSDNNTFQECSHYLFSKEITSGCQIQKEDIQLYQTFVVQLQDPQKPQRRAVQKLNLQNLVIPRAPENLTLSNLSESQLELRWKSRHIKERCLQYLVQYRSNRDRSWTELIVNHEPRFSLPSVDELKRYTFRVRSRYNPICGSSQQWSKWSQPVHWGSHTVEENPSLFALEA

B1: hIL2Rb_VHH3 Mono-Fc VHH (Fc fusion, not shown: a dimerising Fc or GST)
chain: QVQLQESGGGLVQPGGSLKLSCAASGFRFSNYGMSWVRQAPGEGLEWVSYINGDGSRTHYADSVKGRFTISRDNAKNTLYLQLNSLKTEDTAMYYCEKGLSRDGWSLSAASRGQGTQVTVSS
B2: hIL2Rb_VHH6 Mono-Fc VHH (Fc fusion, not shown: a dimerising Fc or GST)
chain: QVQLQESGGGSVQAGGSLRLSCAASEYTASRYCMAWFRQAPGKEREGVAAIHPGGGTTYYADSVKGRFSISQDSADNTLYLQMNSLKPEDTAMYYCAAGSLWVPFGDRCAANYWGQGTQVTVSS
B3: hIL2Rb_VHH7 Mono-Fc VHH (Fc fusion, not shown: a dimerising Fc or GST)
chain: QVQLQESGGGSVQAGGSLRLSCAASGYEYCRIHMTWYRQGPGKEREFVSSIGSDGRKTYANSVTGRFTISRDNANHTVYLQMNSLSPEDTAMYYCKTEYLYGLGCPDGSAYWGQGTQVTVSS
B4: hIL2Rb_VHH5 Mono-Fc VHH (Fc fusion, not shown: a dimerising Fc or GST)
chain: QVQLQESGGGSVQVGGSLRLSCATSGDTKSIRCMGWFRQTPGKEREGIAAIDREGFATYADSVYDRFTIAQDNAQNTLYLEMNALKPEDTAMYYCAAQNMCRVVRGAMTGVDYWGKGTQVTVSS
B5: hIL2Rb_VHH4 Mono-Fc VHH (Fc fusion, not shown: a dimerising Fc or GST)
chain: QVQLQESGGGSVQTGGSLRLSCAVSGYTTYSFNYMGWFRQAPGKEREGVAVIYTGGGSTLYADSVKGRFTISQDNAKNTVYLQMNSLKPEDTAMYYCAADDQRFASPLYAYFGYWGQGTQVTVSS
B6: hIL2Rb_VHH1 Mono-Fc VHH (Fc fusion, not shown: a dimerising Fc or GST)
chain: QVQLQESGGGSVQAGGSLRLSCVGSGYTYDTSDMSWYRQAPGKEREFVSDIDSGDWAAYADAVKGRFTISRDNAKKTVYLQMNSLEPEDTAMYYCKASYWKWGKLNNFWGPGTQVTVSS
B7: hIL2Rb_VHH2 Mono-Fc VHH (Fc fusion, not shown: a dimerising Fc or GST)
chain: QVQLQESGGGLVQPGGSLRLSCVASGFTFSNYWIFWVRQAAGKGLEWLSTSNTGGDTTKYADSVKGRFTISRDSAKNTEYLQMNSLKPEDTAVYYCETGRCARSGGYQGTQVTVSS
B8: hIL-2Rg_VHH21 Mono-Fc VHH (Fc fusion, not shown: a dimerising Fc or GST)
chain: QVQLQESGGGSVQAGGSLRLSCVASGYTSCMGWFRQAPGKEREAVATIYTRGRSIYYADSVKGRFTISQDNAKNTLYLQMNSLKPEDIAMYSCAAGGYSWSAGCEFNYWGQGTQVTVSS
B9: hIL-2Rg_VHH20 Mono-Fc VHH (Fc fusion, not shown: a dimerising Fc or GST)
chain: QVQLQESGGGSVQAGGSLRLSCTASGFTFDDSDMGWYRQAPGNECELVSTISSDGSTYYADSVKGRFTISQDNAKNTVYLQMNSLKPEDTAVYYCAAEPRGYYSNYGGRRECNYWGQGTQVTVSS
B10: hIL-2Rg_VHH19 Mono-Fc VHH (Fc fusion, not shown: a dimerising Fc or GST)
chain: QVQLQESGGGSVQAGGSLRLSCTASGFTFDDREMNWYRQAPGNECELVSTISSDGSTYYADSVKGRFTISQDNAKNTVYLQMDSVKPEDTAVYYCAADFMIAIQAPGAGCWGQGTQVTVSS
B11: hIL-2Rg_VHH8 Mono-Fc VHH (Fc fusion, not shown: a dimerising Fc or GST)
chain: QVQLQESGGGSVQAGGSLRLSCVASGYTFSSYCMGWFRQAPGKEREGVAALGGGSTYYADSVKGRFTISQDNAKNTLYLQMNSLKPEDTAMYYCAAAWVACLEFGGSWYDLARYKHWGQGTQVTVSS
B12: hIL-2Rg_VHH15 Mono-Fc VHH (Fc fusion, not shown: a dimerising Fc or GST)
chain: QVQLQESGGGLVQPGGSLRLSCAASGFTFSSAHMSWVRQAPGKGREWIASIYSGGGTFYADSVKGRFTISRDNAKNTLYLQLNSLKAEDTAMYYCATNRLHYYSDDDSLRGQGTQVTVSS
B13: hIL-2Rg_VHH22 Mono-Fc VHH (Fc fusion, not shown: a dimerising Fc or GST)
chain: QVQLQESGGGLVQPGGSLRLSCTASGFSFSSYPMTWARQAPGKGLEWVSTIASDGGSTAYAASVEGRFTISRDNAKSTLYLQLNSLKTEDTAMYYCTKGYGDGTPAPGQGTQVTVSS
B14: hIL2Rb_VHH8 Mono-Fc VHH (Fc fusion, not shown: a dimerising Fc or GST)
chain: QVQLQESGGGSVQVGGSLKLSCAASGYTYSSYYCMGWFRQAPGKEREGVAAIDSDGSTSYADSVKGRFTISQDDAKNTLYLQMNSLKPEDTAMYYCAASYEVVDCYPSGYGQDYWGKGTQVTVSS
B15: mIL2Rg_VHH14 (VHH)
VHH: QVQLQESGGGSVQAGGSLRLSCAASGFTFDDFDMGWYRQAPGNECELVSTISDDGSTYYANSVKGRSSISRDNAKNMVYLQMNSLKPEDTAVYYCAAEGALGSKTNCGWVGNFGYWGQGTQVTVSS
notes: As a his-tagged phage clone periplasmic extract
B16: mIL2Rg_VHH15 (VHH)
VHH: B15 VHH with A23T, N61D, M77T, S84R, A91G, T105M
notes: as for B15
B17: mIL2Rg_VHH12 (VHH)
VHH: QVQLQESGGGSVLAGGSLRLSCVASGYGYNYIGWFRQTPGKEREGVAVIYIGGGDTYYADSVKGRFTASRDNAKSTLYLQMNSLEPEDTAMYYCVARYCVGSVYACLRGGHDEYAHWGQGTQVTVSS
notes: as for B15
B18: mIL2Rg_VHH13 (VHH)
VHH: B17 VHH with I51T
notes: as for B15

biological target: T1, hIL2Rb-his; experiment: SPR Biacore T200; Mono-Fc VHH captured on Protein A chip, hIL2Rb-his analyte; 1:1 Langmuir fit
Method: (§1) A representative example from each hIL2Rb VHH clonotype generated as descried above was selected for evaluation of binding via SPR as follows. Evaluation of binding affinity of the hIL2Rb binding molecules shown in Table 16 was conducted using surface plasmon resonance (SPR) in substantial accordance with the following procedure. All experiments were conducted in 10 mM Hepes, 150 mM NaCl, 0.05% (v/v) Polysorbate 20 (PS20) and 3 mM EDTA (HBS-EP+ buffer) on a Biacore T200 instrument equipped with a Protein A derivatized sensor chip (Cytiva). Mono-Fc VHH ligands were flowed at 5 μl/min for variable time ranging from 18 to 300 seconds, reaching the capture loads listed in the tables below. Following ligand capture, injections of a 2-fold dilution series of the extracellular domain of the IL2Rb-receptor modified to incorporate a C-terminal poly-His sequence, typically comprising at least five concentrations between 1 μM and 1 nM, were performed in either high performance or single cycle kinetics mode. Surface regeneration was achieved by flowing 10 mM glycine-HCl, pH 1.5 (60 seconds, […]). Buffer-subtracted sensograms were processed with Biacore T200 Evaluation Software and globally fit with a 1:1 Langmuir binding model (bulk shift set to zero) to extract kinetics and affinity constants (kₐ, kd, KD). RMAX<100 RU indicates surface density compatible with kinetics analysis. Calculated Rₘₐₓ values were generated using the equation: Rmax=Load (RU)×valency of ligand×(Molecular weight of analyte/Molecular weight of ligand). Surface activity was defined as the ratio of experimental/calculated Rmax.

Binder | Kd | koff | kon
B1 | 47 nM | 0.00699 s⁻¹ | 157000 M⁻¹ s⁻¹
B2 | 1.2 nM | 0.0229 s⁻¹ | 1.9e+07 M⁻¹ s⁻¹
B3 | 1.1 nM | 0.00317 s⁻¹ | 2.86e+06 M⁻¹ s⁻¹
B4 | 0.4 nM | 0.00154 s⁻¹ | 3.82e+06 M⁻¹ s⁻¹
B5 | 3.4 nM | 0.00205 s⁻¹ | 600000 M⁻¹ s⁻¹
B6 | 1 nM | 0.0199 s⁻¹ | 1.98e+07 M⁻¹ s⁻¹
B7 | 16 nM | 0.00224 s⁻¹ | 139000 M⁻¹ s⁻¹

biological target: T2, hIL2Rg-his (Sino Biological, Catalog# …); experiment: SPR Biacore T200; Mono-Fc VHH captured on Protein A chip, hIL2Rg-his analyte; 1:1 Langmuir fit
Excerpt: (§2) To confirm and evaluate binding affinities of the binding of the IL2Rg sdAbs, a representative example from each clonotype generated was selected for evaluation of binding via SPR. […] Buffer-subtracted sensograms were processed with Biacore T200 Evaluation Software and globally fit with a 1:1 Langmuir binding model (bulk shift set to zero) to extract kinetics and affinity constants (kₐ, kd, KD). RMAX<100 RU indicates surface density compatible with kinetics analysis. Calculated Rₘₐₓ values were generated using the equation: Rmax=Load (RU)×valency of ligand×(Molecular weight of analyte/Molecular weight of ligand). Surface activity was defined as the ratio of experimental/calculated Rmax.
All experiments were conducted in 10 mM Hepes, 150 mM NaCl, 0.05% (v/v) Polysorbate 20 (PS20) and 3 mM EDTA (HBS-EP+ buffer) on a Biacore T200 instrument equipped with a Protein A chip (Cytiva). Mono-Fc VHH ligands were flowed at 5 μl/min for variable time ranging from 18 to 300 seconds, reaching the capture loads listed in the tables below.
Following ligand capture, injections of a 2-fold dilution series of his-tagged cytokine receptors typically comprising at least five concentrations between 1 μM and 1 nM were performed in either high performance or single cycle kinetics mode. Surface regeneration was achieved by flowing 10 mM glycine-HCl, pH 1.5 (60 seconds, 50 μL/min). Buffer-subtracted sensograms were processed with Biacore T200 Evaluation Software and globally fit with a 1:1 Langmuir binding model (bulk shift set to zero) to extract kinetics and affinity constants (kₐ, kd, KD). RMAX<100 RU indicates surface density compatible with kinetics analysis.

Binder | Kd | koff | kon
B8 | 17.2 nM | 0.00113 s⁻¹ | 65600 M⁻¹ s⁻¹
B9 | 14.1 nM | 0.0027 s⁻¹ | 192000 M⁻¹ s⁻¹
B10 | 2.4 nM | 0.00693 s⁻¹ | 2.85e+06 M⁻¹ s⁻¹
B11 | 2.2 nM | 0.000812 s⁻¹ | 366000 M⁻¹ s⁻¹
B12 | 26 nM | 0.00251 s⁻¹ | 96800 M⁻¹ s⁻¹
B13 | 6.4 nM | 0.00354 s⁻¹ | 554000 M⁻¹ s⁻¹

biological target: T1, hIL2Rb-his; experiment: SPR; ratio of experimental to calculated Rmax
Method: as §1

Binder | Surface Activity
B1 | 52%
B14 | < 5%
B2 | 53%
B3 | 43%
B4 | 42%
B5 | 96%
B6 | 37%
B7 | 26%

biological target: T3, mIL2Rg ECD antigen; experiment: PE-ELISA of phage clones

Binder | binding result
B15 | binds
B16 | binds
B17 | binds
B18 | binds

biological target: T2, hIL2Rg-his (Sino Biological, Catalog# …); experiment: SPR; ratio of experimental to calculated Rmax
Excerpt: as §2
Calculated Rmax were generated using the equation Rmax=Load (RU)×valency of ligand×(Molecular weight of analyte/Molecular weight of ligand. Surface activity was defined as the ratio experimental/calculated Rmax. See tables 16 and 17 below for sample information and experimental results.

Binder | Surface Activity
B8 | 6%
B9 | 48%
B10 | 33%
B11 | 110%
B12 | 73%
B13 | 108%

Source: US20250019453A1 (SYNTHEKINE, published 2025)
